Laboratory results: patent US7700571 (Genentech, dated 2010)
Values belong to the molecule of their own block, whether it stands above or below them.

Key:
[1] = target: Flt-1 on primary mouse liver sinusoidal endothelial cells (LSEC) (mouse) (UniProt P35969); assay: cell-based or functional assay
[2] = target: T1, Flt-1 on primary mouse liver sinusoidal endothelial cells (LSEC) (mouse, UniProt P35969 23-1333); assay: cell-based or functional assay
T1 sequence (looked up): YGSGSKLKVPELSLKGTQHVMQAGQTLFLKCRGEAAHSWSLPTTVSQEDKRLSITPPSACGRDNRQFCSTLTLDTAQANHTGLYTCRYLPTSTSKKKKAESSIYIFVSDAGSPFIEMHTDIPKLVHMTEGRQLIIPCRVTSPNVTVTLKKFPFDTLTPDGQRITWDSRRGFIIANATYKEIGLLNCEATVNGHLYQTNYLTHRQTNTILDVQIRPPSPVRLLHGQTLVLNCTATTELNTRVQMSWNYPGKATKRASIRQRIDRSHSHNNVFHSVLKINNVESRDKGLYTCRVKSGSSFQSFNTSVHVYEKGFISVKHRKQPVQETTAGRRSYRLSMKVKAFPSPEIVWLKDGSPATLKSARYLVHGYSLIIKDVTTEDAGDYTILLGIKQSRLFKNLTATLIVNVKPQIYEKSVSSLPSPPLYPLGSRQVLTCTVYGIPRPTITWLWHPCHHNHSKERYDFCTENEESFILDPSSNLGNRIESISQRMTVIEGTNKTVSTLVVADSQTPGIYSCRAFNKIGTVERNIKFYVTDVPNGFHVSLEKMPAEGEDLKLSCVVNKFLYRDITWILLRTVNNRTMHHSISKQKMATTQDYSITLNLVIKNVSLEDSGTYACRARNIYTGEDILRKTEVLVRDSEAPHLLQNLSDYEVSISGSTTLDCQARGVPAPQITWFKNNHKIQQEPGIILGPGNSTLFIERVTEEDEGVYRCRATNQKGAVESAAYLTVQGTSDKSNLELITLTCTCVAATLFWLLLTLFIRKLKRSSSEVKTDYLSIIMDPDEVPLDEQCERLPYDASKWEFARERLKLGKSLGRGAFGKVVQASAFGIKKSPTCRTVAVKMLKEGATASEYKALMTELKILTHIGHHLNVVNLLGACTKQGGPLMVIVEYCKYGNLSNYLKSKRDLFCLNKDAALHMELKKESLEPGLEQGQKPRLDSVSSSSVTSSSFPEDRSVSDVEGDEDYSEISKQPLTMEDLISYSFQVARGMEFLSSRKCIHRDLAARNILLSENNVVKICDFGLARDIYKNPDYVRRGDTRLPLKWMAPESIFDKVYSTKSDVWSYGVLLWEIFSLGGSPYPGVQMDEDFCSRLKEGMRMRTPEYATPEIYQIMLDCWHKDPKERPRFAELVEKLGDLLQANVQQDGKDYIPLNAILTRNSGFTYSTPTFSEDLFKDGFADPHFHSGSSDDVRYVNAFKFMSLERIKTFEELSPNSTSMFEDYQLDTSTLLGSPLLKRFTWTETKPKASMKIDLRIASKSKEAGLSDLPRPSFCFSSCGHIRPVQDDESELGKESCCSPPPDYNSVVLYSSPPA

KDR [3] = target: T2, KDR (UniProt P35968 20-764, limits assumed); assay: soluble radio-immuno receptor-binding assay (RIA)
T2 construct: also called VEGFR-2; KDR receptor

KDR [4] = target: T2, KDR; assay: soluble radio-immuno receptor-binding assay (RIA); target KDR
Flt-1 = target: T3, Flt-1 (UniProt P17948 27-758, limits assumed); assay: soluble radio-immuno receptor-binding assay (RIA); target Flt-1
T3 construct: also called VEGFR-1; Flt-1 receptor
T3 sequence (P17948 27-758 limits assumed): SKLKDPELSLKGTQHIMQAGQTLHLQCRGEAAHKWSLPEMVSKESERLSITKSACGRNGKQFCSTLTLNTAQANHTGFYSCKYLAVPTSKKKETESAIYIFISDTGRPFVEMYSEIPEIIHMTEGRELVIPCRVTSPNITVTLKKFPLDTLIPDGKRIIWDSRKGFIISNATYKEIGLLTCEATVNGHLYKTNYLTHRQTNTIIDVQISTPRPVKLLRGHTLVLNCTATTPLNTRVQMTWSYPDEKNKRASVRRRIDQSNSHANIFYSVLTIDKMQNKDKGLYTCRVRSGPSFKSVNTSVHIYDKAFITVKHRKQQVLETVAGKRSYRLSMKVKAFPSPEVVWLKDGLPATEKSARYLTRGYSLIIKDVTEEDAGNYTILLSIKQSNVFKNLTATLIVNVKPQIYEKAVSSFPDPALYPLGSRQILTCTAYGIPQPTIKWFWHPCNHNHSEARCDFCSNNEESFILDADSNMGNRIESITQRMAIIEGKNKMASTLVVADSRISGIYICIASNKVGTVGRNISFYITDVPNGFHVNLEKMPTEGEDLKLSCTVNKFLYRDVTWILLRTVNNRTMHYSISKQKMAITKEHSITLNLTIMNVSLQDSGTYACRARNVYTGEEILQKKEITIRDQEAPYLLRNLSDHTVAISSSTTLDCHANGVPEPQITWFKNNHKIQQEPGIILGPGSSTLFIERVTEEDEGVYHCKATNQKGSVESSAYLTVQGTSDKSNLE

T2 sequence (P35968 20-764 limits assumed): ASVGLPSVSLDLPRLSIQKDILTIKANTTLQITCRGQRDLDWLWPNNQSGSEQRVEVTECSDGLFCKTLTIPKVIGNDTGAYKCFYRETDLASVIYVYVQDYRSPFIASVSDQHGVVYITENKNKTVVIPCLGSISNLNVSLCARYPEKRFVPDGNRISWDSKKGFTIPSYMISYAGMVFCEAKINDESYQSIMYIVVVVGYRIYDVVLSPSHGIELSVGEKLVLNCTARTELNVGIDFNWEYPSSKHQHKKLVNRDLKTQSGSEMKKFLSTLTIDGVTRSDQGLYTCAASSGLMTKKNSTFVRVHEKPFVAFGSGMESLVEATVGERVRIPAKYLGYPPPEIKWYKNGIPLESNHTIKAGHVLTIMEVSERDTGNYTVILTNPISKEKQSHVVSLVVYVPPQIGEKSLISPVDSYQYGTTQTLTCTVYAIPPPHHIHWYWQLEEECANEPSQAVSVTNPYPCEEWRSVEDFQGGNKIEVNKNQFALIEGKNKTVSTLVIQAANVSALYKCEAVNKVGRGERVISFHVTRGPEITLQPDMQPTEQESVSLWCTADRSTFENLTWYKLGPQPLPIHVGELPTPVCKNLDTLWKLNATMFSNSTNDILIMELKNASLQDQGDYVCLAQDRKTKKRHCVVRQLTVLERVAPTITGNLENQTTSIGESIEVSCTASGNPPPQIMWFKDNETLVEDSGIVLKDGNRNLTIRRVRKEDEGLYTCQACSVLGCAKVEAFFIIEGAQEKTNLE

- induction of HGF mRNA in LSEC (Taqman RT-PCR, 10 ng/ml, 24 h) [1]: 5.5 fold
- induction of IL-6 mRNA in LSEC (Taqman RT-PCR, 10 ng/ml, 24 h) [1]: 3.3 fold
Molecule: recombinant human VEGF (from UniProt P15692 181-395) (ligand)

- induction of HGF mRNA in LSEC (Taqman RT-PCR, 10 ng/ml, 24 h) [2]: 5.5 fold
- induction of IL-6 mRNA in LSEC (Taqman RT-PCR, 10 ng/ml, 24 h) [2]: 3.3 fold
- fold reduction of KDR-binding affinity against native VEGF(8-109) (KDR [3]): ≥ 470 fold
B1: Flt-sel variant I43A/I46A/Q79A/I83A (ligand)
chain: APMAEGGGQNHHEVVKFMDVYQRSYCHPIETLVDIFQEYPDEAEYAFKPSCVPLMRCGGCCNDEGLECVPTEESNITMAIMRAKPHQGQHIGEMSFLQHNKCECRPKKDRARQENPCGPCSERRKHLFVQDPQTCKCSCKNTDSRCKARQLELNERTCRCDKPRR
notes: VEGF variant with four alanine substitutions, numbered on native VEGF; also called Fit-sel; FIt-sel

- Kd (KDR [4]): 0.5 nM
- Kd (Flt-1): 0.4 nM
B2: native VEGF(8-109) (ligand)
chain: GQNHHEVVKFMDVYQRSYCHPIETLVDIFQEYPDEIEYIFKPSCVPLMRCGGCCNDEGLECVPTEESNITMQIMRIKPHQGQHIGEMSFLQHNKCECRPKKD
notes: If that entry includes the signal peptide, 8-109 must be shifted; also called the native protein
